Experimental data published in PMC3411640, “Molecular Breeding of a Fungus Producing a Precursor Diterpene Suitable for Semi-Synthesis by Dissection of the Biosynthetic Machinery” (PLoS ONE, 2012).

What was measured:
[1] = test system: O=c1ccn([C@@H]2O[C@H](CO[P@@](=O)(O)O[P@@](=O)(O)O[C@H]3O[C@H](CO)[C@@H](O)[C@H](O)[C@H]3O)[C@@H](O)[C@H]2O)c(=O)[nH]1; assay: HPLC, Hanes-Woolf; assay type: biochemical, Diaporthe amygdali; settings: 0.1 mM 9 (FC H aglycon), 50 mM MES pH 6.0, 30°C
[2] = test system: CC(=O)SCCNC(=O)CCNC(=O)[C@H](O)C(C)(C)COP(=O)(O)OP(=O)(O)OC[C@H]1O[C@@H](n2cnc3c(N)ncnc32)[C@H](O)[C@@H]1OP(=O)(O)O; assay: HPLC, Hanes-Woolf; assay type: biochemical, Diaporthe amygdali; settings: 203 µM 14 (dideacetyl-FC A), 50 mM Tris-HCl pH 8.5, 35°C

| Substance | Km [1] [µM] | kcat [1] [S^−1] | Km [2] [µM] | kcat [2] |
| --- | --- | --- | --- | --- |
| glycosyltransferase (Orf6) (Diaporthe amygdali) | 520 ± 46 | 0.40±0.044 |  |  |
| acetyltransferase-2 (Orf12) (Diaporthe amygdali) |  |  | 63 ± 6.6 | 3.5×10^−3±0.17×10^−3 S^−1 |
